{"source": "patent US20150329614A1", "about": "(Novartis, published 2015)", "binders": {"B1": {"name": "hIGF-1-Ea-Fc_mut 13/2_A (Fc fusion)", "chain": "TLCGAELVDALQFVCGDRGFYFNKPTGYGSSSQAAPQTSIVDECCFRSCDLRRLEMYCAPLKPAVQAQQHTDMPKTQKEVHLKNASRGSAGNKNYQMCPPCPAPEAAGGPSVFLFPPKPKDTLMISRTPEVTCVVVDVSHEDPEVKFNWYVDGVEVHNAKTKPREEQYNSTYRVVSVLTVLHQDWLNGKEYKCKVSNKALPAPIEKTISKAKGQPREPQVYTLPPSREEMTKNQVSLTCLVKGFYPSDIAVEWESNGQPENNYKTTPPVLDSDGSFFLYSKLTVDKSRWQQGNVFSCSVMHEALHNHYTQKSLSLSPGK", "notes": "Modified human IGF-1-Ea precursor joined by hinge 1 to a hIgG1 LALA Fc"}}, "target": "T1, rec. human IGF-1R (R&D Systems, 391-GR) (human, UniProt P08069 31-932)", "T1 construct": "Bought soluble protein, used as the analyte in SPR; also called rhIGF1R; recombinant human IGF-1R", "T1 sequence (P08069 31-932 limits assumed)": "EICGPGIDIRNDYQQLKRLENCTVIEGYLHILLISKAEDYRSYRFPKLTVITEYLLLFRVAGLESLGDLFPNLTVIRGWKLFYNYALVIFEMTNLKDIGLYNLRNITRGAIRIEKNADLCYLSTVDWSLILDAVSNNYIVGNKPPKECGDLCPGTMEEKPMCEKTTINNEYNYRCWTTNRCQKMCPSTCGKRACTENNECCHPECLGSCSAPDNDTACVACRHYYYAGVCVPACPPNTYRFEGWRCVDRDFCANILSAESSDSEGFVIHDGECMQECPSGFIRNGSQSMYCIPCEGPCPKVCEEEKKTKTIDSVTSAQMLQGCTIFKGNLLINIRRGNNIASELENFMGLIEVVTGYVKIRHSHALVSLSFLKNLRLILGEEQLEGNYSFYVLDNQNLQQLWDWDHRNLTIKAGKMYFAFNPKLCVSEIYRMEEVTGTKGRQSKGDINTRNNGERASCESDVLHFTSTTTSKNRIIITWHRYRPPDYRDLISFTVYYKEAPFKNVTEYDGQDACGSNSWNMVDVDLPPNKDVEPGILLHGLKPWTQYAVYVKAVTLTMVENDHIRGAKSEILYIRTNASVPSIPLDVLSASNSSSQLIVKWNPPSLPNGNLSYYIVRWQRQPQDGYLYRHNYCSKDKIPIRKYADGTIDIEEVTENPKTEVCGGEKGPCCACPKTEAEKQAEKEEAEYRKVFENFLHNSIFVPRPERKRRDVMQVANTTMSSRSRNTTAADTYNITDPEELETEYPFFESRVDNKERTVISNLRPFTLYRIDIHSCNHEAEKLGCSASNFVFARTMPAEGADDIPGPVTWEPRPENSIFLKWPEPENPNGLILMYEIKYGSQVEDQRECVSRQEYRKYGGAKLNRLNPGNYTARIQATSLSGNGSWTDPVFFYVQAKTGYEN", "test": "SPR (Biacore T200), ligand immobilised on CM5 chip, rec. human IGF-1R as analyte, 1:1 model", "description": "The binding properties were characterized by SPR using a Biacore T200 instrument at 25° C. […] The analyte concentration ranges were adapted to the individual interaction and ranged from 1000-3.9 nM (IGF-1R). […] Kinetic rate constants and KD were calculated by fitting double-referenced sensorgrams to a 1:1 binding model.\nA direct binding assay was performed. […] The resulting sensorgrams were fitted to a 1:1 interaction model to calculate the equilibrium dissociation constants (KD).", "data": [{"binder": "B1", "values": [{"measurement": "binding result", "result": "binds"}]}]}
